Sequences and labels used below:
B5: RPA70 N-terminal domain (residues 1-120), purified (other, UniProt P27694 1-120, looked up)
chain: MVGQLSEGAIAAIMQKGDTNIKPILQVINIRPITTGNSPPRYRLLMSDGLNTLSSFMLATQLNPLVEEEQLSSNCVCQIHRFIVNTLKDGRRVVILMELEVLKSAEAVGVKIGNPVPYNE
modifications: Atto488 label
notes: range 1-120; also called RPA70 N-terminal OB1 domain; RPA70N (1-120)

The target in experiment [1] is B5. In words: MST, 50 nM Atto488-labelled RPA70 N-terminal domain (1-120), peptide titrated [panel D].
Experiment [2] deals with T1, GRB2-SH2 domain, purified, Atto488-labelled (UniProt P62993 60-152, limits assumed, Atto488 label).
T1 construct: domain: SH2; Individual GRB2 domains generated as described before (Ahmed et al., 2010)
T1 sequence (P62993 60-152 limits assumed): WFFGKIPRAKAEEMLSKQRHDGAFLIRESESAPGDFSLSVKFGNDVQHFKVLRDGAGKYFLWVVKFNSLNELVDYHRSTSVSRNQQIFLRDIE
As to the kind of experiment: MST with the Y111 phosphorylated MRE11 peptide.

In experiment [3] the target is T2, GRB2 (growth factor receptor-bound protein 2), wild-type, full-length, bacterially expressed and purified (UniProt P62993 1-217, Atto488 label where used as the labelled partner in MST).
T2 construct: domain: full-length; also called WTGRB2; non-ubiquitinated GRB2
T2 sequence (P62993 whole entry): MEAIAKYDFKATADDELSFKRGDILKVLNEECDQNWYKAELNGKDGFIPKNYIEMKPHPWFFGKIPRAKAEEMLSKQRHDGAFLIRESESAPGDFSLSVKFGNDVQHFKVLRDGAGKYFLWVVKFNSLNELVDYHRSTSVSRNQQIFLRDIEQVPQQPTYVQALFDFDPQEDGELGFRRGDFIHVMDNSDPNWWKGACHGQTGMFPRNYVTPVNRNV
As to the kind of experiment: MST with the Y111 phosphorylated MRE11 peptide.

For experiment [4], the target named is T1, GRB2-SH2 domain, purified, …. As to the kind of experiment: MST, 100 nM Atto488-labelled GRB2-SH2 domain, peptide titrated.
Experiment [5] addresses T3, NBS1, endogenous, in HEK293T cell extracts (UniProt O60934 1-754).
T3 sequence (looked up): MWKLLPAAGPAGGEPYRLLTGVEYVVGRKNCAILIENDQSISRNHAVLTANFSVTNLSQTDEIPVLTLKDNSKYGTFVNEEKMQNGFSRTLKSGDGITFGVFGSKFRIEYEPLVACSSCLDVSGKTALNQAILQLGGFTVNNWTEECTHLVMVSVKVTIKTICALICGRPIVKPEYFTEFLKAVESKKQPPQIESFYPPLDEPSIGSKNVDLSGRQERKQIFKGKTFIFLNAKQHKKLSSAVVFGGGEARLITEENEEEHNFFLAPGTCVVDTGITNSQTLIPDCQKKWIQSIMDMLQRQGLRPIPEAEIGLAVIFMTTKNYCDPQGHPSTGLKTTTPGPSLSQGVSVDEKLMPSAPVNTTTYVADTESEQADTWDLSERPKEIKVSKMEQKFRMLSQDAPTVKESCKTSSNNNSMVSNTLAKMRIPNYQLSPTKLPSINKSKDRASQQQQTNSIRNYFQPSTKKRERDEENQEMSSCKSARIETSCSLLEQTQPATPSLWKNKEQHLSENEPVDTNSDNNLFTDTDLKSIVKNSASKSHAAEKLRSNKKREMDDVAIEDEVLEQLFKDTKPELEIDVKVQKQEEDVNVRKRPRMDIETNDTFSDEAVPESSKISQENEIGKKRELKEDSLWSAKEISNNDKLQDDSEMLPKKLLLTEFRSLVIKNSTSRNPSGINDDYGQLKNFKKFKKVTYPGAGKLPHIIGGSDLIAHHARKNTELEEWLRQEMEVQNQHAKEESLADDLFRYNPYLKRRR
In words: Flag-M2 immunoprecipitation from HEK293T cells, unperturbed or 5 Gy IR, western blot.

Experiment [6] has as its target T2, GRB2 (growth factor receptor-bound …). As to the kind of experiment: MST, 50 nM Atto488-labelled RPA70 N-terminal domain (1-120), GRB2 titrated [panel D].

Where no end group is shown, it is not given here. [ ]: non-standard residue; d: D form. pY = N[C@@H](Cc1ccc(OP(=O)(O)O)cc1)C(=O)O

B1: GRB2 OB1 peptide KYDFKATADDELSFKRG (peptide)
peptide: KYDFKATADDELSFKRG
notes: Synthetic, from GenScript; also called GRB2-derived OB1 peptide
Turning to B1, the Kd in experiment [1] came out at 2.1 µM.

B2: Tyrosine-phosphorylated MRE11 peptide WVNpYQDGNLN (peptide)
peptide: WVN[pY]QDGNLN
modifications: not fully specified
notes: also called Y111 phosphorylated MRE11 peptide; tyrosine phosphorylated peptide
On to B2, for which the Kd was found to be 46.8 µM in experiment [2] and 19.7 µM in experiment [3].

B3: Phosphorylated H2AX peptide PSGGKKATQASQE(pY) (pY142 only) (peptide)
peptide: PSGGKKATQASQEX
modifications: phosphotyrosine at position 14 (Y142 of H2AX)
notes: Synthetic, from GenScript; also called pY142 H2AX
In the case of B3, the binding result in experiment [4] was “no binding (tested: about 50 µM)”.

B4: Flag-MRE11 expressed in HEK293T cells (enzyme, UniProt P49959 1-708, looked up)
chain: MSTADALDDENTFKILVATDIHLGFMEKDAVRGNDTFVTLDEILRLAQENEVDFILLGGDLFHENKPSRKTLHTCLELLRKYCMGDRPVQFEILSDQSVNFGFSKFPWVNYQDGNLNISIPVFSIHGNHDDPTGADALCALDILSCAGFVNHFGRSMSVEKIDISPVLLQKGSTKIALYGLGSIPDERLYRMFVNKKVTMLRPKEDENSWFNLFVIHQNRSKHGSTNFIPEQFLDDFIDLVIWGHEHECKIAPTKNEQQLFYISQPGSSVVTSLSPGEAVKKHVGLLRIKGRKMNMHKIPLHTVRQFFMEDIVLANHPDIFNPDNPKVTQAIQSFCLEKIEEMLENAERERLGNSHQPEKPLVRLRVDYSGGFEPFSVLRFSQKFVDRVANPKDIIHFFRHREQKEKTGEEINFGKLITKPSEGTTLRVEDLVKQYFQTAEKNVQLSLLTERGMGEAVQEFVDKEEKDAIEELVKYQLEKTQRFLKERHIDALEDKIDEEVRRFRETRQKNTNEEDDEVREAMTRARALRSQSEESASAFSADDLMSIDLAEQMANDSDDSISAATNKGRGRGRGRRGGRGQNSASRGGSQRGRADTGLETSTRSRNSKTAVSASRNMSIIDAFKSTRQQPSRNVTTKNYSEVIEVDESDVEEDIFPTTSKTDQRWSSTSSSKIMSQSQVSKGVDFESSEDDDDDPFMNTSSLRRNRR
notes: not shown: Flag tag
As for B4, the binding result in experiment [5] is recorded as “binds”. Take B5: in experiment [6], the Kd was found to be 1.6 µM.

B6: Phosphorylated H2AX peptide PSGGKKATQA(pS)QEY (pS139 only) (peptide)
peptide: PSGGKKATQAXQEY
modifications: phosphoserine at position 11 (S139 of H2AX)
notes: Synthetic, from GenScript; also called pS139 H2AX
Consider B6, for which, in experiment [4], the binding result was “no binding”.

Values taken from US20230366033A1 (University of Texas, published 2023).
